Measured values published in patent US20220177583A1.

What was measured:
[1] = target: human CLDN6, endogenously expressed on cancer cell lines (human) (UniProt P56747); assay: FACS on OVCA429 cells, sample 1: no 1o, 2nd antibody NBP1-51902, 2o wash 2x
[2] = target: human CLDN6 fused to GFP, expressed on engineered HEK293T cells (human) (UniProt P56747); assay: flow cytometry on HEK293T CLDN6-mGFP A11 cells (Positive Artificial OE Cell Line), secondary antibody alone; the same number stands under the 0.1µg and the 1µg head
[3] = target: human CLDN6, endogenously expressed on cancer cell lines (human) (UniProt P56747); assay: FACS on ARK2 cells, secondary antibody only; number from the data table under the bars
[4] = target: T1, mouse CLDN6 fused to GFP, expressed on engineered HEK293T cells (mouse) (UniProt Q9Z262); assay: FACS, 293T clone with mouse CLDN6, secondary antibody alone (negative control, background)
T1 sequence (looked up): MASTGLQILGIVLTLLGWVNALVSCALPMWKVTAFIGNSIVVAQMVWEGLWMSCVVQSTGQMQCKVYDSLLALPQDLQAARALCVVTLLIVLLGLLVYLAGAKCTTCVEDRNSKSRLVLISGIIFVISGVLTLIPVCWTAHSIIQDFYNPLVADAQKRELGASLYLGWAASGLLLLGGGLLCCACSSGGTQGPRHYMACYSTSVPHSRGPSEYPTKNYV

[5] = target: human CLDN6, endogenously expressed on cancer cell lines (human) (UniProt P56747); assay: flow cytometry on UMUC4 cells (Positive Cell Line), secondary antibody alone; the same number stands under the 0.1µg and the 1µg head
[6] = target: human CLDN6, endogenously expressed on cancer cell lines (human) (UniProt P56747); assay: FACS, ARK2 cells, secondary antibody alone (negative control, background; column 1.5 ug)
[7] = target: human CLDN6, endogenously expressed on cancer cell lines (human) (UniProt P56747); assay: FACS, ARK2 cells, secondary antibody alone (negative control, background; column 0.3 ug)
[8] = target: human CLDN6, endogenously expressed on cancer cell lines (human) (UniProt P56747); assay: FACS, OVCA429 cells, secondary antibody alone (negative control, background; column 1.5 ug)
[9] = target: human CLDN6 fused to GFP, expressed on engineered HEK293T cells (human) (UniProt P56747); assay: FACS, 293T clone with human CLDN6, secondary antibody alone (negative control, background; column 1.5 ug Ab)
[10] = target: human CLDN6 fused to GFP, expressed on engineered HEK293T cells (human) (UniProt P56747); assay: FACS, 293T clone with human CLDN6, secondary antibody alone (negative control, background; column 0.3 ug Ab)
[11] = target: human CLDN6 fused to GFP, expressed on engineered HEK293T cells (human) (UniProt P56747); assay: FACS on 293T CLDN6 mGFP Clone A11 cells, secondary antibody only; number from the data table under the bars

Chain of human CLDN6, endogenously expressed on cancer cell lines (human) (P56747 whole entry, the tested form may be a part): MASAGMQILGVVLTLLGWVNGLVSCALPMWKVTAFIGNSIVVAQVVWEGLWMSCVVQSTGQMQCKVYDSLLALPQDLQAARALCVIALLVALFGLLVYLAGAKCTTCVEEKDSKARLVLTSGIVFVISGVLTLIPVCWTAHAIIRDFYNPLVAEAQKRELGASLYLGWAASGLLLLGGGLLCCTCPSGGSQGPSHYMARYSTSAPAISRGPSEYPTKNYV

Question: “2nd Ab only (secondary detection antibody alone, negative control)” was tested. Which Dylight 649 Signal by C6 [1] did it give?
Answer: Its Dylight 649 Signal by C6 is 1210.

Question: And the flow cytometry signal [2]?
Answer: The flow cytometry signal was 1240.

Question: What about the FL4H Singlets in Viable cells [3] of the same substance?
Answer: The FL4H Singlets in Viable cells was 9130.

Question: And the FACS signal [4]?
Answer: The FACS signal was 1060.

Question: And the flow cytometry signal [5]?
Answer: Its flow cytometry signal is 1110.

Question: What about the FACS signal [6] of the same substance?
Answer: Its FACS signal is 1350.

Question: And the FACS signal [7]?
Answer: Its FACS signal is 1350.

Question: And the FACS signal [8]?
Answer: Its FACS signal is 886.

Question: And the FACS signal [9]?
Answer: The FACS signal was 768.

Question: And the FACS signal [10]?
Answer: Its FACS signal is 768.

Question: What about the FL4H Singlets in Viable cells [11] of the same substance?
Answer: Its FL4H Singlets in Viable cells is 9420.
